“And” between values parts separate entries of the source, which are not always exact repeats. Equal entries are not always repeated.
B1: WT ICP27: full-length wild-type HSV-1 protein ICP27 expressed from plasmid (protein)
chain: MATDIDMLIDLGLDLSDSDLDEDPPEPAESRRDDLESDSSGECSSSDEDMEDPHGEDGPEPILDAARPAVRPSRPEDPGVPSTQTPRPTERQGPNDPQPAPHSVWSRLGARRPSCSPEQHGGKVARLQPPPTKAQPARGGRRGRRRGRGRGGPGAADGLSDPRRRAPRTNRNPGGPRPGAGWTDGPGAPHGEAWRGSEQPDPPGGQRTRGVRQAPPPLMTLAIAPPPADPRAPAPERKAPAADTIDATTRLVLRSISERAAVDRISESFGRSAQVMHDPFGGQPFPAANSPWAPVLAGQGGPFDAETRRVSWETLVAHGPSLYRTFAGNPRAASTAKAMRDCVLRQENFIEALASADETLAWCKMCIHHNLPLRPQDPIIGTTAAVLDNLATRLRPFLQCYLKARGLCGLDELCSRRRLADIKDIASFVFVILARLANRVERGVAEIDYATLGVGVGEKMHFYLPGACMAGLIEILDTHRQECSSRVCELTASHIVAPPYVHGKYFYCNSLF

Assays:
[1] = biological target: SRPK1; settings: determined using in vitro phosphorylation assays; read-out: dissociation constant (Kd) of SRSF1 RS domain binding to SRPK1; cited from earlier work
[2] = system: GFP-SRPK1; assay: Immunofluorescence: cellular localization of GFP-SRPK1; format: cell-based, rabbit skin fibroblasts (RSF); settings: RSF cells cotransfected with GFP-SRPK1 and ICP27 plasmid, infected with 27-LacZ, fixed 6 h later; representative of ∼80% of cells
Protocol: HeLa cells cotransfected with GFP-SRPK1 and WT ICP27 or RGG box mutants were infected for 8 h with 27-LacZ. Immunoprecipitation was performed using anti-GFP antibody. Western blots were probed with anti-GFP or anti-ICP27 antibody and anti-β-actin as a loading control. (B) HeLa cells transfected with WT and ICP27 RGG box mutants were infected with 27-LacZ for 8 h. Immunoprecipitation was performed with anti-ICP27 antibody. Western blots were probed with anti-SRPK1 or anti-ICP27 antibody as indicated and anti-β-actin as a loading control. (C) RSF cells were transfected with GFP-SRPK1 and 16 h later were mock infected, infected with WT HSV-1 or 27-LacZ, or were cotransfected with GFP-SRPK1 and WT ICP27 or ICP27 RGG box mutants and infected 16 later with 27-LacZ. Cells were fixed 6 h later and immunofluorescent staining was performed with anti-ICP27. ICP4 antibody was used to stain the 27-LacZ sample to mark the nucleus. GFP fluorescence was visualized directly. The panels shown are representative of ∼80% of cells visualized. (D) HeLa cells were transfected with GFP-SRPK1 and WT ICP27 or RGG box mutants and were infected with 27-LacZ 16 h after transfection for 8 h. […]
In immunofluorescence experiments, rabbit skin fibroblasts (RSF) were transfected and/or infected as indicated in the legend to Fig. 5. […] GFP fluorescence was viewed directly. […]

[3] = system: SRPK1 phosphorylation of SR proteins; assay: In vivo SR protein phosphorylation analysis (Western blot, antiphosphoepitope SR antibody); format: cell-based; settings: HeLa cells cotransfected with GFP-SRPK1 and ICP27 plasmid, infected with 27-LacZ for 8 h
Protocol: HeLa cells cotransfected with GFP-SRPK1 and WT ICP27 or RGG box mutants were infected for 8 h with 27-LacZ. Immunoprecipitation was performed using anti-GFP antibody. Western blots were probed with anti-GFP or anti-ICP27 antibody and anti-β-actin as a loading control. (B) HeLa cells transfected with WT and ICP27 RGG box mutants were infected with 27-LacZ for 8 h. Immunoprecipitation was performed with anti-ICP27 antibody. Western blots were probed with anti-SRPK1 or anti-ICP27 antibody as indicated and anti-β-actin as a loading control. (C) RSF cells were transfected with GFP-SRPK1 and 16 h later were mock infected, infected with WT HSV-1 or 27-LacZ, or were cotransfected with GFP-SRPK1 and WT ICP27 or ICP27 RGG box mutants and infected 16 later with 27-LacZ. Cells were fixed 6 h later and immunofluorescent staining was performed with anti-ICP27. ICP4 antibody was used to stain the 27-LacZ sample to mark the nucleus. GFP fluorescence was visualized directly. The panels shown are representative of ∼80% of cells visualized. (D) HeLa cells were transfected with GFP-SRPK1 and WT ICP27 or RGG box mutants and were infected with 27-LacZ 16 h after transfection for 8 h. Portions of cell lysates were fractionated by SDS-PAGE, and Western blots were probed with antiphosphoepitope SR antibody, anti-SF2 (SRSF1), anti-ICP27 antibody, and anti-lamin B1 antibody as a loading control. […]

[4] = biological target: T1, GFP-SRPK1 (Homo sapiens, UniProt Q96SB4); assay: Coimmunoprecipitation of ICP27 with GFP-SRPK1 (anti-GFP IP, Western blot anti-ICP27); format: cell-based; settings: HeLa cells cotransfected with GFP-SRPK1 and ICP27 plasmid, infected with 27-LacZ for 8 h
T1 construct: expressed in transfected cells; host or cells: HeLa cells, infected with HSV-1 27-LacZ
From the text: (§1) ICP27 mutants were constructed to target sites within the RGG box that contact SRPK1 in the crystal structure. Arginines at positions 142, 144, 146, and 148 were changed to glycine (G) as single (R142G, R146G, or R148G), double (R142G R146G), and quadruple (R142G R144G R146G R148G) substitutions. The ICP27 mutant plasmids were cotransfected with a plasmid expressing green fluorescent protein (GFP)-SRPK1 and subsequently infected with ICP27 null mutant virus 27-LacZ to recapitulate the conditions of infection. At 8 h after infection, lysates were immunoprecipitated with anti-GFP antibody, and samples were analyzed by Western blotting and probed with antibody to ICP27 (Fig. 5A). […] ICP27 interaction with endogenous SRPK1 was also analyzed. Cells were transfected with WT and ICP27 mutant plasmids and infected with 27-LacZ as described above. Immunoprecipitation was performed with anti-ICP27 antibody and the blots were probed with antibody to SRPK1 (Fig. 5B). SRPK1 was only coimmunoprecipitated with WT ICP27 and was not detected with any of the mutants.
(§2) HeLa cells cotransfected with GFP-SRPK1 and WT ICP27 or RGG box mutants were infected for 8 h with 27-LacZ. Immunoprecipitation was performed using anti-GFP antibody. Western blots were probed with anti-GFP or anti-ICP27 antibody and anti-β-actin as a loading control. […] GFP fluorescence was visualized directly. […]

[5] = biological target: T2, endogenous SRPK1 (Homo sapiens, UniProt Q96SB4); assay: Coimmunoprecipitation of endogenous SRPK1 with ICP27 (anti-ICP27 IP, Western blot anti-SRPK1); format: cell-based; settings: HeLa cells transfected with ICP27 plasmid, infected with 27-LacZ for 8 h
T2 construct: endogenous in cells; host or cells: HeLa cells
From the text: as §1, §2

T2 sequence (Q96SB4 whole entry): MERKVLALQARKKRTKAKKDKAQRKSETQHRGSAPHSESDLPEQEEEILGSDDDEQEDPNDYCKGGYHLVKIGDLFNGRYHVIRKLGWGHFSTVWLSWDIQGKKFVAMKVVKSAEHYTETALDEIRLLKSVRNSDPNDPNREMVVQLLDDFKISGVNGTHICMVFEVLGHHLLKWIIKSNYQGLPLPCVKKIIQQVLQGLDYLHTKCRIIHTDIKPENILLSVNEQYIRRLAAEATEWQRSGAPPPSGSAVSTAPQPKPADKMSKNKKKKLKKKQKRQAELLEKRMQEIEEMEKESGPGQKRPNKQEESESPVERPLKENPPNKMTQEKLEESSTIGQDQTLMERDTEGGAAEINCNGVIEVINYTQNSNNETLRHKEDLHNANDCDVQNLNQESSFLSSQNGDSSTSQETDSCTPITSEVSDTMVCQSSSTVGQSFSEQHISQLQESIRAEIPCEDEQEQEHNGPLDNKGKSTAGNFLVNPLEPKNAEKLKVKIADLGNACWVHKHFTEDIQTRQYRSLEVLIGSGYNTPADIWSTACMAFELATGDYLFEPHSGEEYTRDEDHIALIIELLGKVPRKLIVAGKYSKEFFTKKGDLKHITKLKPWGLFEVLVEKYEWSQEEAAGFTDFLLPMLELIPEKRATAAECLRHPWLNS
T1 sequence (Q96SB4 whole entry): as above

Row | Molecule | Kd [1] | cellular localization of SRPK1 [2] | level of phosphorylation for SRp40 (SRSF5) reduced [3] | phosphorylation of SRp30 (SRSF1) reduced [3] | coimmunoprecipitation of ICP27 with GFP-SRPK1 [4] | coimmunoprecipitation of endogenous SRPK1 with ICP27 [5]
1 | SRSF1: prototype SR protein, native cellular substrate of SRPK1 | ~50 nM and 50 nM |  |  |  |  | 
2 | B1 |  | prominently nuclear | reduced | reduced | efficiently coimmunoprecipitated | coimmunoprecipitated
